According to paper PMC10185811, “FAT10 and NUB1L cooperate to activate the 26S proteasome” (Life Science Alliance, 2023):

Tests used:
[1] = target: T1, His6-RPN10 (human, UniProt P55036 1-377); assay: BLI; Octet; His6-RPN10 on the sensor; GST-FAT10 alone or together with NUB1LΔUBL in solution; Octet buffer; 1:1 binding model; conditions: both partners purified
T1 construct: RPN10 (hS5α), subunit of the 19S regulator of the 26S proteasome, human; also called His–RPN10; hS5α; source: recombinant; expression and purification described before (Rani et al, 2012)

[2] = target: T2, NUB1L (NEDD8 ultimate buster 1 long), tagless (human, UniProt Q9Y5A7-1 1-615); assay: BLI; Octet; His6-RPN1 loaded on the nickel sensor; NUB1L, GST-FAT10, NUB1L with GST-FAT10 or NUB1L with GST in solution; Octet buffer (PBS, 0.1% Triton X-100, 1x ROTIBlock); 1:1 binding model; conditions: both partners purified
T2 construct: NUB1L, human, the long splice variant of NUB1 with one UBL and three UBA domains, printed mass 69.1 kD; The long splice variant is meant; which UniProt isoform id holds it was not checked; By my reading of the printed primers the insert begins at Ala2 (AQKKYLQ) and runs to the stop codon; also called NUB1 long; full-length WT NUB1L; source: recombinant, cloned into the pSUMO vector; expression, …
T2 sequence (looked up): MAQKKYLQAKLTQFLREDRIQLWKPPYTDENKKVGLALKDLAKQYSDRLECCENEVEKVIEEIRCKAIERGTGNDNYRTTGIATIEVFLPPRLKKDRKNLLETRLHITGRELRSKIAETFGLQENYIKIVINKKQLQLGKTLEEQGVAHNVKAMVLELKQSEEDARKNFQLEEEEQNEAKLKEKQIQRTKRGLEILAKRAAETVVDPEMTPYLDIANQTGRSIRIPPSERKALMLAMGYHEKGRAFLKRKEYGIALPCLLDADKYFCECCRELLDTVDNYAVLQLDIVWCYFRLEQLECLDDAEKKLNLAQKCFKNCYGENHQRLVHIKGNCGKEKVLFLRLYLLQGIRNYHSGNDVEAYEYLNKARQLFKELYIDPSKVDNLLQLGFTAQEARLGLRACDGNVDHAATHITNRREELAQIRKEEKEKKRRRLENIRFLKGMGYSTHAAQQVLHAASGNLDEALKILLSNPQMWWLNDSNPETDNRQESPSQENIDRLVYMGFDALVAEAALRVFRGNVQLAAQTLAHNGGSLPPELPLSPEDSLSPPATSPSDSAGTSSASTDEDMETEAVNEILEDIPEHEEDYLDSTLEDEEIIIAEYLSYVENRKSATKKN

T1 sequence (P55036 whole entry): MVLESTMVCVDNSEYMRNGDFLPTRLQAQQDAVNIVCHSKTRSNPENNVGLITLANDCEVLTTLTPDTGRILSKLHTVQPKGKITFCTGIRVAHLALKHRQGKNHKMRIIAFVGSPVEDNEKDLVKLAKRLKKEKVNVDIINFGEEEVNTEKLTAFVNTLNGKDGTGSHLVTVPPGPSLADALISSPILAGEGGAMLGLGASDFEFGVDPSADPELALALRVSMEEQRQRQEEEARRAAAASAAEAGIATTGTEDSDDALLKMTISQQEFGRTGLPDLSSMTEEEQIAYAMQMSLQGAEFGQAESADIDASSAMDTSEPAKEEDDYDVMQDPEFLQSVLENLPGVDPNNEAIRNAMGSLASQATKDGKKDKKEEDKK

B1: GST-FAT10 (natural protein, human, UniProt O15205 1-165, looked up)
chain: MAPNASCLCVHVRSEEWDLMTFDANPYDSVKKIKEHVRSKTKVPVQDQVLLLGSKILKPRRSLSSYGIDKEKTIHLTLKVVKPSDEELPLFLVESGDEAKRHLLQVRRSSSVAQVKAMIETKTGIIPETQIVTCNGKRLEDGKMMADYGIRKGNLLFLACYCIGG
notes: FAT10 (HLA-F adjacent transcript 10), human; source: recombinant; expression and purification previously described (Schmidtke et al, 2006)
binding result [1]: binds
binding result [2]: binds
